According to paper PMC8715002, “Biochemical and Structural Characterization of a Novel Bacterial Tannase From Lachnospiraceae bacterium in Ruminant Gastrointestinal Tract” (Frontiers in Bioengineering and Biotechnology, 2021):

Key:
Assay in all cases: purified protein
Assay type in all cases: biochemical, Lachnospiraceae bacterium
Details in all cases: pH 7.0, 50 °C, 0.2–5 mM substrate
COC(=O)c1cc(O)c(O)c(O)c1 = test system: T1, COC(=O)c1cc(O)c(O)c(O)c1
T1 construct: about 68 kDa, monomer; catalytic Ser205/Asp582/His614; forward primer reads MSQSTATR; signal peptide not discussed

[1] = test system: T2, CCOC(=O)c1cc(O)c(O)c(O)c1
T2 construct: about 68 kDa, monomer; catalytic Ser205/Asp582/His614; forward primer reads MSQSTATR; signal peptide not discussed

[2] = test system: T3, CCCCCCCCCCCCOC(=O)c1cc(O)c(O)c(O)c1
T3 construct: about 68 kDa, monomer; catalytic Ser205/Asp582/His614; forward primer reads MSQSTATR; signal peptide not discussed

[3] = test system: T4, CCCOC(=O)c1cc(O)c(O)c(O)c1
T4 construct: about 68 kDa, monomer; catalytic Ser205/Asp582/His614; forward primer reads MSQSTATR; signal peptide not discussed

Substance: TanALb (tannase from Lachnospiraceae bacterium) (Lachnospiraceae bacterium)
- Km (COC(=O)c1cc(O)c(O)c(O)c1): 2800 ± 350 µM
- kcat (COC(=O)c1cc(O)c(O)c(O)c1): 82.5 ± 6.3 s⁻¹
- kcat/Km (COC(=O)c1cc(O)c(O)c(O)c1): 36400 ± 4400 M⁻¹ s⁻¹
- Km [1]: 2600 ± 190 µM
- kcat [1]: 78.8 ± 10.4 s⁻¹
- kcat/Km [1]: 33300 ± 7300 M⁻¹ s⁻¹
- Km [2]: 1800 ± 260 µM
- kcat [2]: 24.6 ± 5.2 s⁻¹
- kcat/Km [2]: 15300 ± 2100 M⁻¹ s⁻¹
- Km [3]: 2000 ± 220 µM
- kcat [3]: 44.2 ± 3.6 s⁻¹
- kcat/Km [3]: 24500 ± 4000 M⁻¹ s⁻¹
